Experiments:
[1] = biological target: human FGFR1c/KLB cell surface receptor complex on iLite FGF21 reporter cells (human, UniProt P11362 22-822; Q86Z14 1-1044); assay: cell-based or functional assay
[2] = biological target: T1, human beta-Klotho (KLB) (human, UniProt Q86Z14 53-997); assay: BLI off-rate screen (Octet), Ab captured via Fc;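 also: antibody supernatants applied at 25 µg/mL, dissociation monitored over 1800 s in D-PBS with 0.1% BSA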
T1 construct: also called human KLB
T1 sequence (looked up): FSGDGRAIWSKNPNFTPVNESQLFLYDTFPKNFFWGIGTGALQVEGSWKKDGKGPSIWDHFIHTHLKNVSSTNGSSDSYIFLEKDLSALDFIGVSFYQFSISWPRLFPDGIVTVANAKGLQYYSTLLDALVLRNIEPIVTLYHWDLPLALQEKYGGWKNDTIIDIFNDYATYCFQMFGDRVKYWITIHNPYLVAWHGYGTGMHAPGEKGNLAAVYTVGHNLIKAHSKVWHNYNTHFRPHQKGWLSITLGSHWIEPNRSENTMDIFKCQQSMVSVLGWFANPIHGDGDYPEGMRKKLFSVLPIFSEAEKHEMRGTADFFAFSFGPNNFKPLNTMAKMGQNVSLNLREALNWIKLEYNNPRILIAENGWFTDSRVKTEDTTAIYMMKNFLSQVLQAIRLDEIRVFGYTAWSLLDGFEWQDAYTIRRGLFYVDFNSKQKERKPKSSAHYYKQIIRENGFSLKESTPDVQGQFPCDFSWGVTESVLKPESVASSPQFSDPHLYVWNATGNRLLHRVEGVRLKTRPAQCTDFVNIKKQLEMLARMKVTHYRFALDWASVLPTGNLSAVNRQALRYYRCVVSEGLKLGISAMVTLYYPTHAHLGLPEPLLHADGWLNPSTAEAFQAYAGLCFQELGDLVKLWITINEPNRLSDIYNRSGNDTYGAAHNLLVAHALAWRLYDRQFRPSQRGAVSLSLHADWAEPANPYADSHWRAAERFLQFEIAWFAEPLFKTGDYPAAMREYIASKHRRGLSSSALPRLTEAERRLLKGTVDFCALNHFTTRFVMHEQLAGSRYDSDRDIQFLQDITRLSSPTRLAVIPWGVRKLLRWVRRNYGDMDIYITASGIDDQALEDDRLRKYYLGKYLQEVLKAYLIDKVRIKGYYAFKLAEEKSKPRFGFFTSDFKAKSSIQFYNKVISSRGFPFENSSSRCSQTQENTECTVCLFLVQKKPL

[3] = biological target: cell surface receptor composed of FGFR1c and co-receptor beta-Klotho (KLB) (human, UniProt P11362 22-822; Q86Z14 1-1044); assay: cell-based or functional assay
Sequence of cell surface receptor composed of FGFR1c and co-receptor beta-Klotho (KLB) (P11362 22-822, chain 1 of 2): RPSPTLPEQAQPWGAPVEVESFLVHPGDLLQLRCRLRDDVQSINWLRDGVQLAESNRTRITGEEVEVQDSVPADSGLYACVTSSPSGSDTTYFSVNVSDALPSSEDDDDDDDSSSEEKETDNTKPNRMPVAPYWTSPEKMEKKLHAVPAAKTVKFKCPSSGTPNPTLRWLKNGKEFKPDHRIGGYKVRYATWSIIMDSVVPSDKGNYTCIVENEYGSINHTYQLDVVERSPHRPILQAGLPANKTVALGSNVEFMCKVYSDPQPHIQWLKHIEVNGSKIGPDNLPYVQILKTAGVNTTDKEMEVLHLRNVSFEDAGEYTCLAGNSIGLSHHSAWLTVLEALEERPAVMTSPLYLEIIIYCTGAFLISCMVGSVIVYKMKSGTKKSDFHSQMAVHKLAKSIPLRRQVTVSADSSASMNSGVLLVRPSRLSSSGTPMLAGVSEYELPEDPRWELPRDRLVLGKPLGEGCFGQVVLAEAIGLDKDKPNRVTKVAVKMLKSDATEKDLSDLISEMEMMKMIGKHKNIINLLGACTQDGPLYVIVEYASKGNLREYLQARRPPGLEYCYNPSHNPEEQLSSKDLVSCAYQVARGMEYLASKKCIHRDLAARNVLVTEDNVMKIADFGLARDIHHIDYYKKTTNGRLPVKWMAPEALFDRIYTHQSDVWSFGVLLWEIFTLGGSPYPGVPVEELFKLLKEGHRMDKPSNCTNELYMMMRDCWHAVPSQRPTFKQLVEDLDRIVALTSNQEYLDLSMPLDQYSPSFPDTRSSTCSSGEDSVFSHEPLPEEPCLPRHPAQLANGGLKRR
Sequence of cell surface receptor composed of FGFR1c and co-receptor beta-Klotho (KLB) (Q86Z14 whole entry, chain 2 of 2): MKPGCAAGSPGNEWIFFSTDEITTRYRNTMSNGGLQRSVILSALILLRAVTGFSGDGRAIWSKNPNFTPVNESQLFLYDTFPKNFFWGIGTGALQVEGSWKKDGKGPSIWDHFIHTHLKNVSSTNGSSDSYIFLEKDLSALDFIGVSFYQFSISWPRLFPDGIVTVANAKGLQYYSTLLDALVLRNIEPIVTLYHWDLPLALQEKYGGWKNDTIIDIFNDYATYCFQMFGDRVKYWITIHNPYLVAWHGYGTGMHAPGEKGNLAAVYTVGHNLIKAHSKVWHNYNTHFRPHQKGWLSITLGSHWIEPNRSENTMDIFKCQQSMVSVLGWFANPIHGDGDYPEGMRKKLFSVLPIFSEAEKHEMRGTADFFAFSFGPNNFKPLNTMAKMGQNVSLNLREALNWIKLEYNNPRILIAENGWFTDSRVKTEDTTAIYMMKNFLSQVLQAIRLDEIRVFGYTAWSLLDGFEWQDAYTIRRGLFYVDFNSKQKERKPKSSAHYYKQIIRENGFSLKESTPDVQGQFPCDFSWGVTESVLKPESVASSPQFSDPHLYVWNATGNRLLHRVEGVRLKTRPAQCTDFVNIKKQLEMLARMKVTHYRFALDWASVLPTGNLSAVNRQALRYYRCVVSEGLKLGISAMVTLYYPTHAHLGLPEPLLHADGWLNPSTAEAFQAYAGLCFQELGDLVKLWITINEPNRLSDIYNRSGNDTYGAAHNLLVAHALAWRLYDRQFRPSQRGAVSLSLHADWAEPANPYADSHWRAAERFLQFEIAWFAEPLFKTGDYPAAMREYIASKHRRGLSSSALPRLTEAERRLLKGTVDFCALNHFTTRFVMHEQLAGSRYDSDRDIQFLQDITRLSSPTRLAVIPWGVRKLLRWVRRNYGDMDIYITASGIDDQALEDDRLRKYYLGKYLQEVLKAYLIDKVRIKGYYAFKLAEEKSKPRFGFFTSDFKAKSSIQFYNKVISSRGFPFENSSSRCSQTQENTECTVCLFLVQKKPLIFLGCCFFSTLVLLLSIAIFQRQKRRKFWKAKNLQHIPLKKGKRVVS

[4] = biological target: human FGFR1c/KLB receptor complex on iLite FGF21 Assay Ready Cells (human, UniProt P11362 22-822; Q86Z14 1-1044); assay: cell-based or functional assay
Sequence of human FGFR1c/KLB receptor complex on iLite FGF21 Assay Ready Cells (P11362 22-822, chain 1 of 2): as the sequence (P11362 22-822, chain 1 of 2) above
Sequence of human FGFR1c/KLB receptor complex on iLite FGF21 Assay Ready Cells (Q86Z14 whole entry, chain 2 of 2): as the sequence (Q86Z14 whole entry, chain 2 of 2) above
For Mean E max (%) in this document: reference of the scale not given here.
For Mean E max, Luciferase reporter gene assay in this document: reference of the scale not given here.

Sequence of human FGFR1c/KLB cell surface receptor complex on iLite FGF21 reporter cells (P11362 22-822, chain 1 of 2): as the sequence (P11362 22-822, chain 1 of 2) above
Sequence of human FGFR1c/KLB cell surface receptor complex on iLite FGF21 reporter cells (Q86Z14 whole entry, chain 2 of 2): as the sequence (Q86Z14 whole entry, chain 2 of 2) above

B1: 16H7 variant, light chain N26T (antibody, human IgG4 S228P, lambda, V domains shown)
VH: not shown
VL: SYVLTQPPSVSVAPGQTARITCGGNTIGSESVHWYQQKPGQAPVLVVYDDSDRPSGIPERFSGSNSGNTATLTISRVEAGDEADYYCQVWDGNSDHVVFGGGTKLTVLG
notes: IgG4 backbone
Mean E max (%) [1]: 105%
Mean EC50 [1]: 0.143 nM
koff [2]: 4.4e-05 s⁻¹

B2: 16H7 variant, light chain D52K (antibody, human IgG4 S228P, lambda, V domains shown)
VH: not shown
VL: SYVLTQPPSVSVAPGQTARITCGGNNIGSESVHWYQQKPGQAPVLVVYDDSKRPSGIPERFSGSNSGNTATLTISRVEAGDEADYYCQVWDGNSDHVVFGGGTKLTVLG
notes: IgG4 backbone
Mean E max (%) [1]: 101%
Mean EC50 [1]: 0.117 nM
koff [2]: 9.2e-05 s⁻¹

B3: 16H7 variant, light chain D52H (antibody, human IgG4 S228P, lambda, V domains shown)
VH: not shown
VL: SYVLTQPPSVSVAPGQTARITCGGNNIGSESVHWYQQKPGQAPVLVVYDDSHRPSGIPERFSGSNSGNTATLTISRVEAGDEADYYCQVWDGNSDHVVFGGGTKLTVLG
notes: IgG4 backbone
Mean E max (%) [1]: 97%
Mean EC50 [1]: 0.109 nM
koff [2]: 3.6e-05 s⁻¹

B4: 16H7 variant, light chain D52I (antibody, human IgG4 S228P, lambda, V domains shown)
VH: not shown
VL: SYVLTQPPSVSVAPGQTARITCGGNNIGSESVHWYQQKPGQAPVLVVYDDSIRPSGIPERFSGSNSGNTATLTISRVEAGDEADYYCQVWDGNSDHVVFGGGTKLTVLG
notes: IgG4 backbone
Mean E max (%) [1]: 110%
Mean EC50 [1]: 0.14 nM
koff [2]: 2.8e-05 s⁻¹

B5: 16H7 variant, light chain D52R (antibody, human IgG4 S228P, lambda, V domains shown)
VH: not shown
VL: SYVLTQPPSVSVAPGQTARITCGGNNIGSESVHWYQQKPGQAPVLVVYDDSRRPSGIPERFSGSNSGNTATLTISRVEAGDEADYYCQVWDGNSDHVVFGGGTKLTVLG
notes: IgG4 backbone
Mean E max (%) [1]: 96%
Mean EC50 [1]: 0.091 nM
koff [2]: 2.9e-05 s⁻¹

B6: 16H7 variant, light chain D52A (antibody, human IgG4 S228P, lambda, V domains shown)
VH: not shown
VL: SYVLTQPPSVSVAPGQTARITCGGNNIGSESVHWYQQKPGQAPVLVVYDDSARPSGIPERFSGSNSGNTATLTISRVEAGDEADYYCQVWDGNSDHVVFGGGTKLTVLG
notes: IgG4 backbone
Mean E max (%) [1]: 101%
Mean EC50 [1]: 0.163 nM
koff [2]: 4.8e-05 s⁻¹

B7: 16H7 variant, light chain D52L (antibody, human IgG4 S228P, lambda, V domains shown)
VH: not shown
VL: SYVLTQPPSVSVAPGQTARITCGGNNIGSESVHWYQQKPGQAPVLVVYDDSLRPSGIPERFSGSNSGNTATLTISRVEAGDEADYYCQVWDGNSDHVVFGGGTKLTVLG
notes: IgG4 backbone
Mean E max (%) [1]: 106%
Mean EC50 [1]: 0.107 nM
koff [2]: 5.7e-05 s⁻¹

B8: 16H7 variant, light chain G23A (antibody, human IgG4 S228P, lambda, V domains shown)
VH: not shown
VL: SYVLTQPPSVSVAPGQTARITCAGNNIGSESVHWYQQKPGQAPVLVVYDDSDRPSGIPERFSGSNSGNTATLTISRVEAGDEADYYCQVWDGNSDHVVFGGGTKLTVLG
notes: IgG4 backbone
Mean E max (%) [1]: 107%
Mean EC50 [1]: 0.122 nM
koff [2]: 4e-05 s⁻¹

B9: 16H7 variant, light chain D52F (antibody, human IgG4 S228P, lambda, V domains shown)
VH: not shown
VL: SYVLTQPPSVSVAPGQTARITCGGNNIGSESVHWYQQKPGQAPVLVVYDDSFRPSGIPERFSGSNSGNTATLTISRVEAGDEADYYCQVWDGNSDHVVFGGGTKLTVLG
notes: IgG4 backbone
Mean E max (%) [1]: 102%
Mean EC50 [1]: 0.105 nM
koff [2]: 7.9e-06 s⁻¹

B10: 16H7 light chain variant G28V (antibody, human IgG4 S228P, lambda, V domains shown)
VH: not shown
VL: SYVLTQPPSVSVAPGQTARITCGGNNIVSESVHWYQQKPGQAPVLVVYDDSDRPSGIPERFSGSNSGNTATLTISRVEAGDEADYYCQVWDGNSDHVVFGGGTKLTVLG
Mean E max, Luciferase reporter gene assay [3]: 97%

B11: 16H7 variant with light chain substitution S55A (antibody, V domains shown)
VH: not shown
VL: SYVLTQPPSVSVAPGQTARITCGGNNIGSESVHWYQQKPGQAPVLVVYDDSDRPAGIPERFSGSNSGNTATLTISRVEAGDEADYYCQVWDGNSDHVVFGGGTKLTVLG
Mean E max (%) [4]: 110%

B12: 16H7 variant, light chain D52Q (antibody, human IgG4 S228P, lambda, V domains shown)
VH: not shown
VL: SYVLTQPPSVSVAPGQTARITCGGNNIGSESVHWYQQKPGQAPVLVVYDDSQRPSGIPERFSGSNSGNTATLTISRVEAGDEADYYCQVWDGNSDHVVFGGGTKLTVLG
notes: IgG4 backbone
Mean E max (%) [1]: 101%
Mean EC50 [1]: 0.107 nM
koff [2]: 2.7e-05 s⁻¹

B13: 16H7 light chain variant S29Y (antibody, human IgG4 S228P, lambda, V domains shown)
VH: not shown
VL: SYVLTQPPSVSVAPGQTARITCGGNNIGYESVHWYQQKPGQAPVLVVYDDSDRPSGIPERFSGSNSGNTATLTISRVEAGDEADYYCQVWDGNSDHVVFGGGTKLTVLG
Mean E max, Luciferase reporter gene assay [3]: 102%

B14: 16H7 variant, light chain D52G (antibody, human IgG4 S228P, lambda, V domains shown)
VH: not shown
VL: SYVLTQPPSVSVAPGQTARITCGGNNIGSESVHWYQQKPGQAPVLVVYDDSGRPSGIPERFSGSNSGNTATLTISRVEAGDEADYYCQVWDGNSDHVVFGGGTKLTVLG
notes: IgG4 backbone
Mean E max (%) [1]: 109%
Mean EC50 [1]: 0.125 nM
koff [2]: 3.7e-05 s⁻¹

B15: 16H7 variant, light chain D52S (antibody, human IgG4 S228P, lambda, V domains shown)
VH: not shown
VL: SYVLTQPPSVSVAPGQTARITCGGNNIGSESVHWYQQKPGQAPVLVVYDDSSRPSGIPERFSGSNSGNTATLTISRVEAGDEADYYCQVWDGNSDHVVFGGGTKLTVLG
notes: IgG4 backbone
Mean E max (%) [1]: 108%
Mean EC50 [1]: 0.098 nM
koff [2]: 4e-05 s⁻¹

B16: 16H7 light chain variant G28Q (antibody, human IgG4 S228P, lambda, V domains shown)
VH: not shown
VL: SYVLTQPPSVSVAPGQTARITCGGNNIQSESVHWYQQKPGQAPVLVVYDDSDRPSGIPERFSGSNSGNTATLTISRVEAGDEADYYCQVWDGNSDHVVFGGGTKLTVLG
Mean E max, Luciferase reporter gene assay [3]: 104%

B17: 16H7 variant, light chain D52Y (antibody, human IgG4 S228P, lambda, V domains shown)
VH: not shown
VL: SYVLTQPPSVSVAPGQTARITCGGNNIGSESVHWYQQKPGQAPVLVVYDDSYRPSGIPERFSGSNSGNTATLTISRVEAGDEADYYCQVWDGNSDHVVFGGGTKLTVLG
notes: IgG4 backbone
Mean E max (%) [1]: 102%
Mean EC50 [1]: 0.11 nM
koff [2]: 9.1e-05 s⁻¹

B18: 16H7 variant, light chain D52V (antibody, human IgG4 S228P, lambda, V domains shown)
VH: not shown
VL: SYVLTQPPSVSVAPGQTARITCGGNNIGSESVHWYQQKPGQAPVLVVYDDSVRPSGIPERFSGSNSGNTATLTISRVEAGDEADYYCQVWDGNSDHVVFGGGTKLTVLG
notes: IgG4 backbone
Mean E max (%) [1]: 114%
Mean EC50 [1]: 0.125 nM
koff [2]: 6.9e-05 s⁻¹

B19: 16H7 variant with light chain substitution R53V (antibody, V domains shown)
VH: not shown
VL: SYVLTQPPSVSVAPGQTARITCGGNNIGSESVHWYQQKPGQAPVLVVYDDSDVPSGIPERFSGSNSGNTATLTISRVEAGDEADYYCQVWDGNSDHVVFGGGTKLTVLG
Mean E max (%) [4]: 101%

B20: 16H7 variant with light chain substitution S51F (antibody, V domains shown)
VH: not shown
VL: SYVLTQPPSVSVAPGQTARITCGGNNIGSESVHWYQQKPGQAPVLVVYDDFDRPSGIPERFSGSNSGNTATLTISRVEAGDEADYYCQVWDGNSDHVVFGGGTKLTVLG
Mean E max (%) [4]: 100%
Mean EC50 [4]: 0.12 nM

B21: 16H7 variant, light chain D52T (antibody, human IgG4 S228P, lambda, V domains shown)
VH: not shown
VL: SYVLTQPPSVSVAPGQTARITCGGNNIGSESVHWYQQKPGQAPVLVVYDDSTRPSGIPERFSGSNSGNTATLTISRVEAGDEADYYCQVWDGNSDHVVFGGGTKLTVLG
notes: IgG4 backbone
Mean E max (%) [1]: 100%
Mean EC50 [1]: 0.109 nM
koff [2]: 1.8e-05 s⁻¹

B22: 16H7 variant, light chain D52E (antibody, human IgG4 S228P, lambda, V domains shown)
VH: not shown
VL: SYVLTQPPSVSVAPGQTARITCGGNNIGSESVHWYQQKPGQAPVLVVYDDSERPSGIPERFSGSNSGNTATLTISRVEAGDEADYYCQVWDGNSDHVVFGGGTKLTVLG
notes: IgG4 backbone
Mean E max (%) [1]: 123%
Mean EC50 [1]: 0.114 nM
koff [2]: < 1e-05 s⁻¹

B23: 16H7 variant, light chain D52N (antibody, human IgG4 S228P, lambda, V domains shown)
VH: not shown
VL: SYVLTQPPSVSVAPGQTARITCGGNNIGSESVHWYQQKPGQAPVLVVYDDSNRPSGIPERFSGSNSGNTATLTISRVEAGDEADYYCQVWDGNSDHVVFGGGTKLTVLG
notes: IgG4 backbone
Mean E max (%) [1]: 115%
Mean EC50 [1]: 0.124 nM
koff [2]: 6.9e-07 s⁻¹

B24: 16H7 variant, light chain D52M (antibody, human IgG4 S228P, lambda, V domains shown)
VH: not shown
VL: SYVLTQPPSVSVAPGQTARITCGGNNIGSESVHWYQQKPGQAPVLVVYDDSMRPSGIPERFSGSNSGNTATLTISRVEAGDEADYYCQVWDGNSDHVVFGGGTKLTVLG
notes: IgG4 backbone
Mean E max (%) [1]: 105%
Mean EC50 [1]: 0.144 nM
koff [2]: 2.4e-05 s⁻¹

B25: 16H7 variant, light chain G23C (antibody, human IgG4 S228P, lambda, V domains shown)
VH: not shown
VL: SYVLTQPPSVSVAPGQTARITCCGNNIGSESVHWYQQKPGQAPVLVVYDDSDRPSGIPERFSGSNSGNTATLTISRVEAGDEADYYCQVWDGNSDHVVFGGGTKLTVLG
notes: IgG4 backbone
Mean E max (%) [1]: 108%
Mean EC50 [1]: 0.087 nM
koff [2]: 4.1e-05 s⁻¹
